Experimental data taken from the domain aggregation screens of Martell et al. (2025).

Assay: soluble fraction after stress (log2 fold change); higher = more stays soluble; pooled small domains, quantitative proteomics
Details: stress: 50 degC
Method in brief: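 The stress applied to every library was 50°C. These custom libraries of small protein domains were pooled and measured at high throughput with quantitative proteomics as the read-out. Aggregation propensity is expressed as the base-two logarithm of the fold change in how much of each protein remains soluble. The higher the value, the more of that protein stays in solution.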

Row | Sequence | soluble fraction (log2)
1 | HMIESFQNGLVEHDQFTRPNPWVTPNFSKIEVPSILLSGKHADIDLWKHQNSIENTKKNRPDLFKNYLKKN | 0.211
2 | HMNFMDGFQSFFQESGAMNRPMTADVVSYRLPDGTVQQGNSTMRGLMDQYLKSIGQSPTTGVP | 0.00775
3 | HMGSLNDQVMKYIDALPSAFNKRELDFLIERGVKEFALNGEYLEKAIINEYKLTADTYHRER | 0.0641
4 | HMTEDADIERRLTGILASAGWYRSLAVEVKEGIVYLDGATASGNHRDWAGSLAAKTEGVVAVVNRIEVQP | -0.238
5 | HMVSSVAAISQMIDEKDRYTSEHSHRVAEYARLIGAHMGFAGEELDSLYRSALLHDIGKIAVPDAILNK | -0.338
6 | HMKYYIYQGLGDSGELTKIAEVTDVKTYTATGLEANTKYRFAVSAYNGLRESSKSNIITVTT | 0.0324
7 | HMLYGRRFQVEGLNLERYLRAAADSGIPLKGARRFGRTLTGVAAEEHMAALEALARQGGWLFTPLEAVGAN | -0.22
8 | HMNGVPDMSPVPEGARNSTLHAWAFGRLKNHPDNETGIREDLFRRGHASGLQDAELDQIWKSIKRTL | 0.0847
9 | HMSGHEVMVQRITAIIAELYQYGFVSRKKMMDEFNISERTLYRDLNRLGDRIVPDGDGIYRLAPAYA | -1.55
10 | HMDTNEPFAQLQLRFTDPIQYDYEVIRPVVLFSQSVTDRSDETEMPRTTVREKARQFVTEGMLGLVDK | -0.00748
11 | HMPAELGVVVRNANLRSGPGTKYAIVGSAPAGTTVRIAGTNKAGDWYHLSSGRWIAAFLVDRN | -0.941
12 | HMTYNIPEHYQTIDVKEYVRKLVSDGDSDQIGRVEMELTEFETRNLFPVLKVLIYIIDTMRK | -2.45
13 | HMSSKTKVEDLGLSTRTLNALIGGSIKTAGGLTRKSESDLLSLDGLGEKGITEIKEALENIGLSLK | 0.215
14 | HMSSLTQREYEIAELVADGLSNKAIAAELSISHTTAARHVANIMNKLGFNSRSQIAAWVADRAQG | 0.11
15 | HMNITHEINVKSKSKIDFLENNKNLAQFFLTKNPNQFNYNLVFSDKSELNIIKEKIESHKDIEDIDIRYG | 0.0125
16 | HMNLPTSGVDALTPAERRVARMAGDGQSNREIAQTLFVTRKTVEIHLTSVYRKLGIASRAELSARL | -2.6
17 | HMKPSKTDEAEYWLMERLEEGPQPAGDLIRIGEEFGYTPKILRDAGERFNMERYKDGLDHWMWKLPN | -0.0945
18 | HMPSALGDKIRAARKALKLSLEDLAEKVSSSKSYMWELENRDEPNPGADLLMRIAAALNVTTEHLLGP | -0.0736
19 | HMSTQVPDVKERSQEEARSILESAGFKVTPAVKTEDSADIAKDMVTKTDPAAGQSVPKGTTITIYVSS | 0.149
20 | HMKPGNFILDLLRTYGQKGTSAQNLMSSSRMFNFSENLIRVTLSRLAARGLIENFERGHYRLAE | -0.333
21 | HMEHLTATERHLVAYLEAHLGQVPSLSITKLSQEANVSTASIVRTMKKLGYDGFTAFKHAIKQQLR | -1.77
22 | HMINLRTALNNAGVMQKELSDILYMTPQDVNRRFSGVTKWKPLEKRAIMQFLEDRGFEYTEEQLF | -0.532
23 | HMQENKVLEGKVLEKKKKKVFVDLSPFGVGVIRGVNYLEAKNELKDIEEGDNIKVRVLEIDNENGFIELAL | 0.271

Row | Sequence | soluble fraction (log2)
24 | HMSVIETLLSDREREVLTHLVNGYDAKRIAEITGISTLTVRKHIANIYTKLHVNSKAQVISMAHKNKWF | -0.657
25 | HMTQLEVDLFERLITISGVGPRLALAVLSGLEPPDLLRAIQDSDIVRLQGIPGVGKKTAERISLELKDKLS | -0.963
26 | HMQLPFTPREHEITQLLSRGLSNRQIAEALSLSVRTVEGHIYQASTKLGISSRSELAVLVGQFA | -1.89
27 | HMTALPPNVSIDSDERRLLEAIGFDPVDMDVLARDGQFSSVDLFRLLVSLELKGLVENQHGAYQRL | -1.31
28 | HMTISAQAITPRLEVIKNFVLMEEWDAAQTQLEKLRSFTEIWSLDPLFSAMKKKDGQKISDWITGFIKDNM | -1.15
29 | HMVRDGDTFVVPKMDRFARNVEDTLHLVRELTERGVIFQMGHTVYDPHDPWSKLFLTFLAAIAEA | -0.00927
30 | HMQEESISWKEFLELDIIGDKKKRLKVYDLFHLGYGNAKTLFKRLNMVGISREMIEKELENEGY | -1.32
31 | HMETLETYTSRLRQLEDITNNFKGVDKSFAIQAGREIRVMVVPEQVSDADMILMARDISKAIEAELEYPGQ | -0.0847
32 | HMNISLGALVTITDQKGRSHTVTLESGKQFFTNHGSINHDEIIKAGEGGVVASSSGMLYTIFTP | -0.836
33 | HMESNDSNIEDDFYEGLKSMRKGDLKMSVVFFTRVIEKKPTFAEAWNRRATVYYMLGKFDKSMFDINETLK | -0.115
34 | HMDIFGREAEVEQILQEVRFGDDPHYRLSIGILPVTGHAGAGKTALVRFIFHHEVARAEFTVRMWVHV | 0.106
35 | HMDETYRRQLEDLAREHGAEYLHGILREVDPASAEAIHANNIKRVIRALEFYHLSGKKISEHNETERQ | 0.158
36 | HMRIVQTDYRNFLSQVESGAVRSVQIDETQIRYTALDSGGKEIVYNTGKVDDPGLVNRLYDAGVEFSQVIP | 0.0657
37 | HMSLEEIPLEERLGPGGLDPVAVYDSLPREMRDAFDSGSVSALREFVNALPAEDAARHMKAMVDSGLWVPT | 0.0547
38 | HMNVNSQQINDLEKSIQKFFDKDIKNYLNQNLSNDRMISKNEIDKIILLYYGSDKEPTLDEIKSIFN | -0.0913
39 | HMENPVPVIITDQNFQPLLWKNVGVPTDTIFHELSPENQKKLENLMKTMVQMPLTDDGRISGYAYYSK | -0.195
40 | HMLGKSNAERQLDLILGAIERSITGVSRSKLMQAYHLDSRGATAAFETLEQRGLITRSKSGRTELLIPTRV | -1.29
41 | HMHQKELLNLSYKEAKRYILDDFERVFFTNLLRKTGGNVSRAAQLAQVHRKNLYVKLTELGIDPRQFG | -1.43
42 | HMTEYFTIESQEGERIDRYLSEELEDKSRSYIQKLIRDGHVLVDGKTVKAGYRLVAGDNIAITLPEI | -0.0879
43 | HMATTAGIEKYLGSGLIKGIGPIYAKKIVRKFKEDTIRIIDEEPDRLLEVEGIGQKRLEIIKQAWQQQKE | -0.391
44 | HMIVEIVPSALHGERVDRIVAFILDVSRSVASGLVERGAVHVDGSVETSGKVRLVEGQEVSVDPSQVPG | -0.46
45 | HMEAFAEAVASMLRKLQPEFAIDLVGPRELLVNGRRLDLENLYRMVNHEPVRGQEIVEHYLDQLFAG | -0.53
46 | HMENYIEQLTAKNSEYIHVVTRELVKIGKSDEEIKAILSDILPQIVAAQDQRVLAKDILGTPSEFTAKYAP | 0.173

Row | Sequence | soluble fraction (log2)
47 | HMDVSEITTIKWIIKETKLGINEKILIYVNSKNFTVETLMEGFEIMSKYLVENVSSDKIVYIKN | -0.179
48 | HMRETELPVTIISAGRILAENLHLAGRDGGWLEAELKRRSLTAEQVLLLTVDAAGTVYLVRKEDL | -0.0641
49 | HMTAPDDFIRAEVTASGKNGMAVAELSKRVRTRFKSFKVRELGYPHLAGYLADVEGVRVYKQGRENWVAK | -0.905
50 | HMTPEPVREALTFQEGRVFALAAKNMTNAEIAQSLSLKLKTVENYMSIIYQKLALKNRYELLVYARKSGV | -0.631
51 | HMINAQETEIYRFLIEKANRLYSMVLGLKREELMTATRQFEEEVKHSSIHHLPKIYQAFSSYLELLERG | -0.478
52 | HMSLTPSQDANRSAILDAARDLFARYGFKKTTMEDIAMALRKGKSSLYYYFKNKEDIFQAVIDS | -1.35
53 | HMEQIETIFLSAAPYARTHIIHLLETSELFRDKYLTIVETSNGLLIYTEDKNRLLGILNSLT | -1.9
54 | HMSPFYALDEVDSFLDGVNVERLAALIARQAEQAQFLVVSHRRPMIGASTRTIGVTQARGAHTQVVGLP | -0.25
55 | HMLDVFSAEQVADVLSVSKRNLETWANNGKLIPDFIHGEVALYSKKQLEQFEQFQRFFNSSWDAERLIQP | -0.947
56 | HMELPPLEPIDRILVVQQPINIREQPGVLAKKIGRVSSGETLTILAKVSGQDWYFVETDNGGRGYVFKRV | -0.555
57 | HMQPTVEGLMKALETMTFNERTALALHYGLTGRQPMTFMAIGRYLGISDGRAEALVNSAIRKLR | -1.43
58 | HMEIGNVIAKLRVSNGLNQREFAKKLEVSNGAVAMWETNKRQPDLEMIKKISNLFDVPTDYILGAGTFQ | -0.458
59 | HMRLATSELVYRIRALIRDQELQPGERLGSERALAQSLGISRSDLRMALAVLEASHEVIRKIGRAGGIVVS | -3.14
60 | HMEDETAKVLRLLAENNGYLPYNDKSDPTDIYAFFGMSKKAFKMTTGNLYKQKKIQFTQTGIQLIE | -0.347
61 | HMYRSGGYTGAGKDDEEAGVVHRNEFVNTADAVRNPHVKRFLDVFNVAQKDGTIRMLNTSQILERARLDA | 0.123
62 | HMNIDNTWQPSEDVVEILTRSGINEDFINELIPEFIVYWTERPGTLVSYNSKFIEHVRLKWAQHSAEI | 0.0597
63 | HMIIIMKPNASEEAVRKVTHIIESKGLQVHLSKGSQVTIVGVVGDKTRLQGSNIEISEGVDKVVAVT | -0.0139
64 | HMDRWSLLTLTTLAGGTLRFTELKRAIGDISQRMLAQTLRTLEREGYVSRKVYATIPPKVEYRLTALGQSL | -3.05
65 | HMVVPRSFKYEVLAHGGWAGNAQRYQTKEEALHAGLALSRRWTAVEDYRAVPSDDLPNQPAL | -0.259
66 | HMEQAAQPQTGFDPRRLKAGDAVHLLALDQRGVLLEDPKPGAESAPVSVGVAGVRVVVPLREMEALPAG | 0.157
67 | HMLVATFGPTTGWEGREIIWDVDRFILVGHGAVPAAGVLDYDRRGQLIWAQPELRAWVVEVDRWETG | -1.97
68 | HMKSDVVFDITDGTVKAMLKFNRSDVTILNNDGKNYYLFTANGEFTFKYQDGSGEYYEKTVYVDWLEDE | -1.24
